The target of assay [1] is T1, CD27-Fc (human, UniProt P26842 20-191).
T1 construct: extracellular domain; hinge included for covalent assembly; also called CD27 receptor-Fc fusion protein; not shown: human Fc gamma 1 region including the hinge region
T1 sequence (looked up): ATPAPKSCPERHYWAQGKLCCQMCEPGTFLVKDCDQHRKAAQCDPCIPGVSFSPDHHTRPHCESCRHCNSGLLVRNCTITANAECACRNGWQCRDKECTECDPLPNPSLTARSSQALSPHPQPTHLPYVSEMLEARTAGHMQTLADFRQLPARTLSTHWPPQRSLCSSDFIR
The assay can be described thus: ELISA, coated receptor-Fc. The protocol: (§1) Receptor binding of the single-chain Duokines was analyzed by ELISA using fusion proteins of the extracellular region of CD40, CD27, 4-1BB and OX40, respectively, with the human Fcγ1 region including the hinge region for covalent assembly (CD40-Fc, CD27-Fc, 4-1BB-Fc, OX40-Fc). Receptor-Fc fusion proteins (200 ng/well) were coated overnight at 4° C. and remaining binding sites were blocked with PBS, 2% skimmed milk powder (2% MPBS). […] The interactions between scDuokine and receptor were dose-dependent with EC₅₀ values in the low nanomolar ranges (FIG. 11 AB, Tab. 2).

The target in assay [2] is T2, 4-1BB-Fc (human, UniProt Q07011 24-186).
T2 construct: extracellular domain; hinge included for covalent assembly; also called 4-1BB receptor-Fc fusion protein; not shown: human Fc gamma 1 region including the hinge region
The assay can be described thus: ELISA, coated receptor-Fc. (In general: ELISA stands for enzyme-linked immunosorbent assay.)

For assay [3], the target named is T3, CD40-Fc (human, UniProt P25942 21-193).
T3 construct: extracellular domain; hinge included for covalent assembly; also called CD40 receptor-Fc fusion protein; not shown: human Fc gamma 1 region including the hinge region
The assay can be described thus: ELISA, coated receptor-Fc.

The target in assay [4] is T4, OX40 receptor on cells (human, UniProt P43489 29-277).
T4 sequence (looked up): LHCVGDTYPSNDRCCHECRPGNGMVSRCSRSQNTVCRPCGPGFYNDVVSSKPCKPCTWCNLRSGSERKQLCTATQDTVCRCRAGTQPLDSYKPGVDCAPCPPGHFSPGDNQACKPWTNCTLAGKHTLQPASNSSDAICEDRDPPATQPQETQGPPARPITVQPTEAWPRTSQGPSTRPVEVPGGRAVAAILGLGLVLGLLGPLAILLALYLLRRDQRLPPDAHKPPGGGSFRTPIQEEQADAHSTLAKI
The assay can be described thus: cell-based or functional assay.

The target of assay [5] is T4, OX40 receptor on cells. The assay can be described thus: cell-based or functional assay. This is another data set of the same source.
Assay [6] addresses T1, CD27-Fc. The assay is described as follows: ELISA, coated receptor-Fc. The protocol: (§2) Receptor binding of the Duokines was analyzed by ELISA using fusion proteins of the extracellular region of CD40, CD27, 4-1BB and OX40, respectively, with the human Fcγ1 region including the hinge region for covalent assembly (CD40-Fc, CD27-Fc, 4-1BB-Fc, OX40-Fc). Receptor-Fc fusion proteins (200 ng/well) were coated overnight at 4° C. and remaining binding sites were blocked with PBS, 2% skimmed milk powder (2% MPBS).
This is another data set of the same source.

Assay [7] concerns the target T5, OX40-Fc (human, UniProt P43489 29-214).
T5 construct: extracellular domain; hinge included for covalent assembly; also called OX40 receptor-Fc fusion protein; not shown: human Fc gamma 1 region including the hinge region
T5 sequence (looked up): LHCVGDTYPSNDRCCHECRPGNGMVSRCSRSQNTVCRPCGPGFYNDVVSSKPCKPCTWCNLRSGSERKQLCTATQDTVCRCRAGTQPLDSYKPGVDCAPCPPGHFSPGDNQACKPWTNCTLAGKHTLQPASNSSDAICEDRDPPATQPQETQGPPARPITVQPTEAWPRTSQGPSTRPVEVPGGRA
The assay is described as follows: ELISA, coated receptor-Fc.

The target of assay [8] is T6, CD40 receptor on cells (human, UniProt P25942 21-277). The assay can be described thus: cell-based or functional assay.
Assay [9] has as its target T3, CD40-Fc. The assay can be described thus: ELISA, coated receptor-Fc. How it is done: as §2
The source holds these as a separate data set.

Assay [10] deals with T3, CD40-Fc. The assay is described as follows: ELISA, coated receptor-Fc. The protocol:
as §1
The source holds these as a separate data set.

The target in assay [11] is T6, CD40 receptor on cells. The assay is described as follows: cell-based or functional assay. This is another data set of the same source.

Read-outs that look alike come from different tables or passages of the source.

T3 sequence (P25942 21-193 limits assumed): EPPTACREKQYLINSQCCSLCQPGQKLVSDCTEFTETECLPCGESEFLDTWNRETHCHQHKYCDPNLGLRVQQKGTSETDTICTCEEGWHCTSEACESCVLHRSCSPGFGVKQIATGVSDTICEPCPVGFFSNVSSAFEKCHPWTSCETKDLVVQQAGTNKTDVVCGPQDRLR
T6 sequence (P25942 21-277): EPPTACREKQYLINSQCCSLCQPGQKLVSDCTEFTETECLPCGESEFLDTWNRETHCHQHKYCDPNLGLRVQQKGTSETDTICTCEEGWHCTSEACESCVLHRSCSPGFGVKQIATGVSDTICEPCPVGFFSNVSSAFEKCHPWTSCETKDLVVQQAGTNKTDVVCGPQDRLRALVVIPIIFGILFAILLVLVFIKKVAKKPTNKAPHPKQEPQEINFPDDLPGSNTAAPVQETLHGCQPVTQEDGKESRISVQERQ

B1: scOX40L-scCD27L (ligand)
chain: QVSHRYPRIQSIKVQFTEYKKEKGFILTSQKEDEIMKVQNNSVIINCDGFYLISLKGYFSQEVNISLHYQKDEEPLFQLKKVRSVNSLMVASLTYKDKVYLNVTTDNTSLDDFHVNGGELILIHQNPGEFCVLGGGSGGGQVSHRYPRIQSIKVQFTEYKKEKGFILTSQKEDEIMKVQNNSVIINCDGFYLISLKGYFSQEVNISLHYQKDEEPLFQLKKVRSVNSLMVASLTYKDKVYLNVTTDNTSLDDFHVNGGELILIHQNPGEFCVLGGGSGGGQVSHRYPRIQSIKVQFTEYKKEKGFILTSQKEDEIMKVQNNSVIINCDGFYLISLKGYFSQEVNISLHYQKDEEPLFQLKKVRSVNSLMVASLTYKDKVYLNVTTDNTSLDDFHVNGGELILIHQNPGEFCVLGGGGSGGGTGGGGSSLGWDVAELQLNHTGPQQDPRLYWQGGPALGRSFLHGPELDKGQLRIHRDGIYMVHIQVTLAICSSTTASRHHPTTLAVGICSPASRSISLLRLSFHQGCTIASQRLTPLARGDTLCTNLTGTLLPSRNTDETFFGVQWVRPGGGSGGGSLGWDVAELQLNHTGPQQDPRLYWQGGPALGRSFLHGPELDKGQLRIHRDGIYMVHIQVTLAICSSTTASRHHPTTLAVGICSPASRSISLLRLSFHQGCTIASQRLTPLARGDTLCTNLTGTLLPSRNTDETFFGVQWVRPGGGSGGGSLGWDVAELQLNHTGPQQDPRLYWQGGPALGRSFLHGPELDKGQLRIHRDGIYMVHIQVTLAICSSTTASRHHPTTLAVGICSPASRSISLLRLSFHQGCTIASQRLTPLARGDTLCTNLTGTLLPSRNTDETFFGVQWVRP
notes: scDuokine from HEK293, FLAG-purified; VH leader left out; also called single-chain Duokine scOX40L-scCD27L; not shown: N-terminal FLAG tag
In general, EC50 refers to the concentration needed to bring the measured effect to its halfway point. A high value points to a need for much substance. In turn, B1 came in with an EC50 in assay [1] of 4.62 nM. Besides, the binding result in assay [2] and in assay [3] was “no binding (tested: 100 nM (FIG. 10))” each time. Further, the “Receptor activation (EC50, nM)” value in [4] amounted to 1.27 nM.

B2: OX40L-CD27L (ligand)
chain: QVSHRYPRIQSIKVQFTEYKKEKGFILTSQKEDEIMKVQNNSVIINCDGFYLISLKGYFSQEVNISLHYQKDEEPLFQLKKVRSVNSLMVASLTYKDKVYLNVTTDNTSLDDFHVNGGELILIHQNPGEFCVLGGGGSGGGGSGGGGSSLGWDVAELQLNHTGPQQDPRLYWQGGPALGRSFLHGPELDKGQLRIHRDGIYMVHIQVTLAICSSTTASRHHPTTLAVGICSPASRSISLLRLSFHQGCTIASQRLTPLARGDTLCTNLTGTLLPSRNTDETFFGVQWVRP
notes: Duokine from HEK293, FLAG-purified; VH leader left out; homotrimer by SEC; also called Duokine OX40L-CD27L; not shown: N-terminal FLAG tag
B2: the binding result in assay [2] and in assay [3] was “no binding (tested: 100 nM (FIG. 4))” throughout. In assay [5], the “Receptor activation (EC50, nM)” value turned out to be 6.58 nM. For the same molecule, the EC50 in [6] came to 1.7 nM.

B3: CD27L-CD40L (ligand)
chain: SLGWDVAELQLNHTGPQQDPRLYWQGGPALGRSFLHGPELDKGQLRIHRDGIYMVHIQVTLAICSSTTASRHHPTTLAVGICSPASRSISLLRLSFHQGCTIASQRLTPLARGDTLCTNLTGTLLPSRNTDETFFGVQWVRPGGGGSGGGGSGGGGSGDQNPQIAAHVISEASSKTTSVLQWAEKGYYTMSNNLVTLENGKQLTVKRQGLYYIYAQVTFCSNREASSQAPFIASLCLKSPGRFERILLRAANTHSSAKPCGQQSIHLGGVFELQPGASVFVNVTDPSQVSHGTGFTSFGLLKL
notes: Duokine from HEK293, FLAG-purified; VH leader left out; homotrimer by SEC; also called Duokine CD27L-CD40L; not shown: N-terminal FLAG tag
Consider B3, for which the binding result in assay [2] and in [7] was “no binding (tested: 100 nM (FIG. 4))” in each case. In addition, the “Receptor activation (EC50, nM)” value in assay [8] was 2.99 nM. The results for the EC50 in assay [9] and in assay [6] were 3.31 nM and 5.9 nM, respectively.

B4: CD40L-CD27L (ligand)
chain: GDQNPQIAAHVISEASSKTTSVLQWAEKGYYTMSNNLVTLENGKQLTVKRQGLYYIYAQVTFCSNREASSQAPFIASLCLKSPGRFERILLRAANTHSSAKPCGQQSIHLGGVFELQPGASVFVNVTDPSQVSHGTGFTSFGLLKLGGGGSGGGGSGGGGSSLGWDVAELQLNHTGPQQDPRLYWQGGPALGRSFLHGPELDKGQLRIHRDGIYMVHIQVTLAICSSTTASRHHPTTLAVGICSPASRSISLLRLSFHQGCTIASQRLTPLARGDTLCTNLTGTLLPSRNTDETFFGVQWVRP
notes: Duokine from HEK293, FLAG-purified; VH leader left out; homotrimer by SEC; also called Duokine CD40L-CD27L; not shown: N-terminal FLAG tag
For B4, the binding result in [2] and in assay [7] was “no binding (tested: 100 nM (FIG. 4))” in each case. The “Receptor activation (EC50, nM)” value in assay [8] was 2.36 nM. Also, the EC50 in [9] is 8.06 nM; in assay [6], 3.15 nM.

B5: scCD40L-scCD27L (ligand)
chain: GDQNPQIAAHVISEASSKTTSVLQWAEKGYYTMSNNLVTLENGKQLTVKRQGLYYIYAQVTFCSNREASSQAPFIASLCLKSPGRFERILLRAANTHSSAKPCGQQSIHLGGVFELQPGASVFVNVTDPSQVSHGTGFTSFGLLKLGGGSGGGGDQNPQIAAHVISEASSKTTSVLQWAEKGYYTMSNNLVTLENGKQLTVKRQGLYYIYAQVTFCSNREASSQAPFIASLCLKSPGRFERILLRAANTHSSAKPCGQQSIHLGGVFELQPGASVFVNVTDPSQVSHGTGFTSFGLLKLGGGSGGGGDQNPQIAAHVISEASSKTTSVLQWAEKGYYTMSNNLVTLENGKQLTVKRQGLYYIYAQVTFCSNREASSQAPFIASLCLKSPGRFERILLRAANTHSSAKPCGQQSIHLGGVFELQPGASVFVNVTDPSQVSHGTGFTSFGLLKLGGGGSGGGTGGGGSSLGWDVAELQLNHTGPQQDPRLYWQGGPALGRSFLHGPELDKGQLRIHRDGIYMVHIQVTLAICSSTTASRHHPTTLAVGICSPASRSISLLRLSFHQGCTIASQRLTPLARGDTLCTNLTGTLLPSRNTDETFFGVQWVRPGGGSGGGSLGWDVAELQLNHTGPQQDPRLYWQGGPALGRSFLHGPELDKGQLRIHRDGIYMVHIQVTLAICSSTTASRHHPTTLAVGICSPASRSISLLRLSFHQGCTIASQRLTPLARGDTLCTNLTGTLLPSRNTDETFFGVQWVRPGGGSGGGSLGWDVAELQLNHTGPQQDPRLYWQGGPALGRSFLHGPELDKGQLRIHRDGIYMVHIQVTLAICSSTTASRHHPTTLAVGICSPASRSISLLRLSFHQGCTIASQRLTPLARGDTLCTNLTGTLLPSRNTDETFFGVQWVRP
notes: scDuokine from HEK293, FLAG-purified; VH leader left out; also called single-chain Duokine scCD40L-scCD27L; not shown: N-terminal FLAG tag
As for B5, the results for the EC50 in [10] and in assay [1] were 4.26 nM and 3.42 nM, respectively. Further, the binding result in assay [2] and in assay [7] was “no binding (tested: 100 nM (FIG. 10))” throughout. In assay [11], the “Receptor activation (EC50, nM)” value was 3.1 nM.

Values taken from patent US20190276511A1 (BIONTECH RNA PHARMACEUTICALS, published 2019).
